These results are taken from paper PMC12394722, “Regulatory role of the N-terminal intrinsically disordered region of the DEAD-box RNA helicase DDX3X in selective RNA recognition”.

In one data set the target is MBP-FL DDX3X (human, UniProt O00571 1-662). In words: EMSA; 1 mM ATP-Mg; peer review file prints 665; EMSA: 20 mM K-phosphate pH 7.0, 125 mM KCl, 1 mM DTT, 0.005% Tween-20, 10% glycerol (1 mM ATP-Mg for MBP-FL/Core-C), gel at room temperature; ITC: 20 mM K-phosphate pH 7.0, 50 mM KCl, 25 C; NMR: 200 mM KCl (also 120 mM), 10 C, 50 uM. The following applies: protein: recombinant; tags: N-terminal His6-MBP; chain copies: 2; label: 3'-FAM; blunt, self-complementary. (A gel shift assay detects complexes by their altered migration in electrophoresis.)

In another data set the target is DDX3X N-IDR (human, UniProt O00571 1-132). Kind of data set: NMR; 200 mM KCl; EMSA: 20 mM K-phosphate pH 7.0, 125 mM KCl, 1 mM DTT, 0.005% Tween-20, 10% glycerol (1 mM ATP-Mg for MBP-FL/Core-C), gel at room temperature; ITC: 20 mM K-phosphate pH 7.0, 50 mM KCl, 25 C; NMR: 200 mM KCl (also 120 mM), 10 C, 50 uM. The following applies: protein: recombinant; tags: His6-SUMO tag cleaved (Ulp1); label: 5'-FAM in EMSA; G4, heterogeneous.
DDX3X N-IDR, sequence (O00571 1-132): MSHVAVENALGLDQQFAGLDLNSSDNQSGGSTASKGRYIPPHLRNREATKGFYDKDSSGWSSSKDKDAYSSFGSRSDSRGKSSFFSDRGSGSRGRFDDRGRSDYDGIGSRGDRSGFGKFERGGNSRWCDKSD

MBP-FL DDX3X, sequence (O00571 whole entry): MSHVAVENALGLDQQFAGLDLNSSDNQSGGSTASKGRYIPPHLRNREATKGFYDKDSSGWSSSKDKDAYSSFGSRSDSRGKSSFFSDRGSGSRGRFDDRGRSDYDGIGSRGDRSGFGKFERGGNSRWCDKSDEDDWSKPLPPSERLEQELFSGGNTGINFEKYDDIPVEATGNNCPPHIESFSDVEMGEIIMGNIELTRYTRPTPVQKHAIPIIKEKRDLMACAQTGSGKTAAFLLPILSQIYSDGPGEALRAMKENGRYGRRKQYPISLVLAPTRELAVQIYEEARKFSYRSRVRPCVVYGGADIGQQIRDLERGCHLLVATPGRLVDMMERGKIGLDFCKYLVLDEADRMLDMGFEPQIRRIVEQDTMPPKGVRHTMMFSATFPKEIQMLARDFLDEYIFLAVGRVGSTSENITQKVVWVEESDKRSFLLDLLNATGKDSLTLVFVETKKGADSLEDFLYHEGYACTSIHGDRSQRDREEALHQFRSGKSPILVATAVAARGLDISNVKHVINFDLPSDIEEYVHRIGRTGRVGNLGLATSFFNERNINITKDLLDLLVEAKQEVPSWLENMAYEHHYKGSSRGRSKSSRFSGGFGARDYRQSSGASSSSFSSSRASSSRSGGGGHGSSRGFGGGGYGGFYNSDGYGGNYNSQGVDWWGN

B1: GC-14mer dsRNA-FAM (dsRNA)
RNA 1: GGGCGGGCCCGCCC
RNA 2: GGGCGGGCCCGCCC
In general, Kd refers to the free concentration of one partner at which half of the binding sites on the other are occupied at equilibrium, for simple one-to-one binding. Consider B1, for which the Kd with MBP-FL DDX3X was 655 ± 31 nM.

B2: ODC1 279-303 (structured_RNA)
RNA: GCUGACGGGCGCGGCGGGGGCGGCC
With B2, the binding result in the data set with DDX3X N-IDR is “binds”.
